Source: PMC4599659

Tests used:
[1] = target: P22 coat protein (bacteriophage P22) (UniProt P26747); assay: SEC-MALS; P22-CYP VLPs from co-expression (pETDuet) in E. coli, purified; HPLC-MALS-RI on WTC-100S5 column, 50 mM phosphate pH 7.2, 100 mM NaCl, 200 ppm sodium azide; CYP-SP per capsid by Eq. 1 (capsid mass taken as 19,572 kDa, CYP-SP 71.5 kDa)
[2] = target: P22 coat protein (bacteriophage P22) (UniProt P26747); assay: SEC-MALS; P22-CYP VLPs from differential expression 1 (pBAD + pRSF; 0.2 % L-arabinose, then 0.5 mM IPTG) in E. coli, purified; HPLC-MALS-RI on WTC-100S5 column, 50 mM phosphate pH 7.2, 100 mM NaCl, 200 ppm sodium azide; CYP-SP per capsid by Eq. 1
[3] = target: P22 coat protein (bacteriophage P22) (UniProt P26747); assay: SEC-MALS; P22-CYP VLPs from differential expression 2 (pBAD + pRSF; 0.125 % L-arabinose, then 0.3 mM IPTG) in E. coli, purified; HPLC-MALS-RI on WTC-100S5 column, 50 mM phosphate pH 7.2, 100 mM NaCl, 200 ppm sodium azide; CYP-SP per capsid by Eq. 1

Chain of UniProt P26747 (P26747 whole entry): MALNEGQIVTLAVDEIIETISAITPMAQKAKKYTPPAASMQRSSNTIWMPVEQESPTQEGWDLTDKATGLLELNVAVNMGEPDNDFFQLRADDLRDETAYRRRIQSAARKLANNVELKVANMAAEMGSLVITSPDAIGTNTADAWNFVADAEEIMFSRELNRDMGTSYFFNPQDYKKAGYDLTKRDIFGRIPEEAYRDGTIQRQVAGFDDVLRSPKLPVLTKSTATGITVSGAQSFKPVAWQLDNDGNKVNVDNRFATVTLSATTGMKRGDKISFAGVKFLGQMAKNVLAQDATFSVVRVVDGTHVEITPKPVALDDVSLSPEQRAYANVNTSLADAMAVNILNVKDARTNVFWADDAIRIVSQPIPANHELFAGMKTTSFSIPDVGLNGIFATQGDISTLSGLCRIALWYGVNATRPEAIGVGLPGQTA

Substance: CYPBM3 "21B3"-scaffold protein fusion (CYP-SP) (from UniProt P26748 141-303)
- stoichiometry N [1]: 156 CYP/capsid
- stoichiometry N [2]: 130 CYP/capsid
- stoichiometry N [3]: 110 CYP/capsid
